Target: ROCK2 (Homo sapiens, UniProt O75116)
Assay: competition fluorescence polarization

Sequence of ROCK2 (O75116 whole entry): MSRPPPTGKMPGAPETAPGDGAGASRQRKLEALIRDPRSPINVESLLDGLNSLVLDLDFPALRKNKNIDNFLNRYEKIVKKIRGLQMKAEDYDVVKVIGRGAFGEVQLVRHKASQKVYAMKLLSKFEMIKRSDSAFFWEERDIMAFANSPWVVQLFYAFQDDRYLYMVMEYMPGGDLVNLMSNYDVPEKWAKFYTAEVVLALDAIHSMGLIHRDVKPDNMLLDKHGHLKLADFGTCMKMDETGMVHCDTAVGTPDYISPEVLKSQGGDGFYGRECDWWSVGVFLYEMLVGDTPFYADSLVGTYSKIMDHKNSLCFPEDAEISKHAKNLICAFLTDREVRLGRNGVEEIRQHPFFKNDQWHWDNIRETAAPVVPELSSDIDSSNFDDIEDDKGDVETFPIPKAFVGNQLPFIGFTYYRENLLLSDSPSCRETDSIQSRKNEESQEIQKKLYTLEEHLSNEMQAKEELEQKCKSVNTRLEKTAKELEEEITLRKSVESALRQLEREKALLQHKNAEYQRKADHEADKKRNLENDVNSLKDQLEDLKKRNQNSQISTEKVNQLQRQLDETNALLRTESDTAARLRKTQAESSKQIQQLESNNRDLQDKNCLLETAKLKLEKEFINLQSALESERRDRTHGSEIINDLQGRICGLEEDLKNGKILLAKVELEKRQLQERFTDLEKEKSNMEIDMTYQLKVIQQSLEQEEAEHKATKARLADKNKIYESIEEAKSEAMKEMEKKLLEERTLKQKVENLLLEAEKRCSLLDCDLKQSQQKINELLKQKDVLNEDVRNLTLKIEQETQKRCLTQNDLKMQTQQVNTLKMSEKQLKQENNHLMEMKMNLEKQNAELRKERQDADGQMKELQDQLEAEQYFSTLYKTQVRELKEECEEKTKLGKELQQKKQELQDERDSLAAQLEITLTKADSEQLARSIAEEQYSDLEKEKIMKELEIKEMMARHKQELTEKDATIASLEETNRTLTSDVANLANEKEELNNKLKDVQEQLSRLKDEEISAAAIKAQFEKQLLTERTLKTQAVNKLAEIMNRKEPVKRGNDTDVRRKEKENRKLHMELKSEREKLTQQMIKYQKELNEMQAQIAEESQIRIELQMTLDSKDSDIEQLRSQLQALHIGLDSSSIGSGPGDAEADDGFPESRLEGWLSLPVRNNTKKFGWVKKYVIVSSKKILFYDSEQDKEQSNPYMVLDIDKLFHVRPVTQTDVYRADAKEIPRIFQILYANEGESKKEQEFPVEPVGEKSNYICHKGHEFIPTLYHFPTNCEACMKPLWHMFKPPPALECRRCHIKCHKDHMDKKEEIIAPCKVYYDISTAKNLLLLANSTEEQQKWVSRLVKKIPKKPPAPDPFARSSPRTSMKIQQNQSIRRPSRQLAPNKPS

B1: APP 646-695 (peptide)
chain: ADRGLTTRPGSGLTNIKTEEISEVKMDAEFRHDSGYEVHHQKLVFFAEDV
modifications: BACE1 C-terminal peptide present
Kd: 3.5 nM

— article PMC10341550 (2023)
